Measured values published in IntAct's records for PubMed 22321644.

B1: Staphylokinase (Staphylococcus aureus (strain N315)), Q99SU7 (parent)
chain: MLKRSLLFLTVLLLLFSFSSITNEVSASSSFDKGKYKKGDDASYFEPTGPYLMVNVTGVDSKGNELLSPHYVEFPIKPGTTLTKEKIEYYVEWALDATAYKEFRVVELDPSAKIEVTYYDKNKKKEETKSFPITEKGFVVPDLSEHIKNPGFNLITKVVIEKK

Variants of: B1
Details: with plmn_human PLG

| Variant | effect of a mutation on the interaction |
| --- | --- |
| P69L | disrupting interaction |

Variants of: B1
Details: with plmn_human PLG
Remark: another data set of the same source

| Variant | effect of a mutation on the interaction |
| --- | --- |
| P69L | decreasing interaction |

Variants of: B1
Details: with plmn_human PLG
Remark: another data set of the same source

| Variant | effect of a mutation on the interaction |
| --- | --- |
| V72Y | decreasing interaction |

Variants of: B1
Details: with plmn_human PLG
Remark: another data set of the same source

| Variant | effect of a mutation on the interaction |
| --- | --- |
| V72F | decreasing interaction |
| Y71F | decreasing interaction |

Variants of: B1
Details: with plmn_human PLG
Remark: another data set of the same source

| Variant | effect of a mutation on the interaction |
| --- | --- |
| V72A | disrupting interaction |

Variants of: B1
Details: with plmn_human PLG
Remark: another data set of the same source

| Variant | effect of a mutation on the interaction |
| --- | --- |
| V72A | decreasing interaction |
